Patent US20210032350A1 (Memorial Sloan Kettering, published 2021)

Key:
mouse Galectin-3 = biological target: T1, mouse Galectin-3 (mouse, UniProt P16110 2-264, limits assumed); assay: ELISA screening (Table 1, antigen target)
T1 construct: also called mLGALS3; mouse LGALS3

human Galectin-3 = biological target: T2, human Galectin-3 (human, UniProt P17931 1-250); assay: SPR, antibody captured on anti-mouse Fc surface, 8-pt 2-fold dilution series of LGALS3 from 500 nM
T2 construct: In the laminin assay it was biotin-labelled; also called LGALS3; Gal3
T2 sequence (P17931 whole entry): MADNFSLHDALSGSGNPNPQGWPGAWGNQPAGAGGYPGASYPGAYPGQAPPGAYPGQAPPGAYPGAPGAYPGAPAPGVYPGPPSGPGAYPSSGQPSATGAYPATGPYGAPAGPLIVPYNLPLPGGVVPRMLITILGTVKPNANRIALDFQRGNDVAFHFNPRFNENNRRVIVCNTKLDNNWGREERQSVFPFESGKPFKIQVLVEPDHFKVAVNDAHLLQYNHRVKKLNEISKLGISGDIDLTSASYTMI
Protocol: SPR: Antibody binding to LGALS3 was confirmed by surface plasmon resonance (SPR) assay. The antibody was captured on an anti-mouse Fc surface and an 8-pt. 2-fold dilution series of LGALS3 was flown over the antibody starting at 500 nM.

T1 sequence (P16110 2-264 limits assumed): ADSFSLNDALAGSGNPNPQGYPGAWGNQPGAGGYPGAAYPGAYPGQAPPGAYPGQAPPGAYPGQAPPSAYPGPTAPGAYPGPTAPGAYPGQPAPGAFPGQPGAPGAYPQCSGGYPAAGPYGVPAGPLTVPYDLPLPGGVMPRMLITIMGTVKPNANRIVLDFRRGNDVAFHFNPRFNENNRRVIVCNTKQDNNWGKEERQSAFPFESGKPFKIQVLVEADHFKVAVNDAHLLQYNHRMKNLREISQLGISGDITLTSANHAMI

- binding result (mouse Galectin-3): binds
- Kd (human Galectin-3): 14.6 nM
B1: 112516.14D11.2D2 (antibody, V domains shown)
VH: QVQLKESGPGLVAPSQSLSITCTISGFSLSSYGVHWVRQPPGKGLEWLVVIWSDGSTTYNSTLKSRLSISKDNSKSQVFLKMNSLQTDDTAMYYCARHISNYGTMDYWGQGTSVTVS
VL: DIQMTQTTSSLSASLGDRVTISCRASQDIRNYLNWYQQKPDGSIKLLIYYTSRLHSGVPSRFSGSGSGTDYSLTIRNLEQEDIATYFCQHFNTLPPTFGGGTKLEIK
